Assay results taken from patent publication US10472401B2, “Peptides and combination of peptides for use in immunotherapy against ovarian cancer and other cancers” (immatics biotechnologies GmbH, priority 2015, dated 2019).

Molecular target: HLA-A*02:01 (Homo sapiens, UniProt P04439, D140Y/D185E/D98H/E176V/E277Q/G131W/G231S/I119V/I121R/I166T/I218V/L300P/L318F/N151K/N90K/P208A/P217A/Q86G/Q94H/R138H/R169H/T345S)
Assay: MHC binding assay (UV-ligand exchange, ELISA of stabilized MHC complexes)
Conditions: MHC class I binding score; binding to HLA-A*02:01 ranged by peptide exchange yield (UV-ligand exchange, ELISA)
Source text: Candidate peptides for T cell based therapies according to the present invention were further tested for their MHC binding capacity (affinity). The individual peptide-MHC complexes were produced by UV-ligand exchange, where a UV-sensitive peptide is cleaved upon UV-irradiation, and exchanged with the peptide of interest as analyzed. Only peptide candidates that can effectively bind and stabilize the peptide-receptive MHC molecules prevent dissociation of the MHC complexes. To determine the yield of the exchange reaction, an ELISA was performed based on the detection of the light chain (β2m) of stabilized MHC complexes. The assay was performed as generally described in Rodenko et al. (Rodenko et al., 2006).
96 well MAXISorp plates (NUNC) were coated over night with 2 ug/ml streptavidin in PBS at room temperature, washed 4× and blocked for 1h at 37° C. in 2% BSA containing blocking buffer. […] Peptide-MHC monomers of the UV-exchange reaction were diluted 100 fold in blocking buffer. Samples were incubated for 1h at 37° C., washed four times, incubated with 2 ug/ml HRP conjugated anti-82m for 1h at 37° C., washed again and detected with TMB solution that is stopped with […]. Absorption was measured at 450 nm. Candidate peptides that show a high exchange yield (preferably higher than 50%, most preferred higher than 75%) are generally preferred for a generation and production of antibodies or fragments thereof, and/or T cell receptors or fragments thereof, as they show sufficient avidity to the MHC molecules and prevent dissociation of the MHC complexes.

Peptide exchange | Substance
″++″ (≥20% = ++) | 87 (ALPEAPAPLLPHIT; listed as Homo sapiens) [compound 87]
″+++″ (≥50% = +++) | 88 (FLLVGDLMAV; listed as Homo sapiens) [compound 88]
″++++″ (≥75% = ++++) | 89 (YILPTETIYV; listed as Homo sapiens) [compound 89]
″+++″ (≥50% = +++) | 90 (TLLQIIETV; listed as Homo sapiens) [compound 90]
″++++″ (≥75% = ++++) | 91 (IMQDFPAEIFL; listed as Homo sapiens) [compound 91]
″++″ (≥20% = ++) | 92 (YLIPFTGIVGL; listed as Homo sapiens) [compound 92]
″++″ (≥20% = ++) | 93 (LLQAIKLYL; listed as Homo sapiens) [compound 93]
″++″ (≥20% = ++) | 94 (YLIDIKTIAI; listed as Homo sapiens) [compound 94]
″+++″ (≥50% = +++) | 95 (SVIPQIQKV; listed as Homo sapiens) [compound 95]
″+++″ (≥50% = +++) | 96 (YIFTDNPAAV; listed as Homo sapiens) [compound 96]
″+++″ (≥50% = +++) | 97 (SLINGSFLV; listed as Homo sapiens) [compound 97]
″+++″ (≥50% = +++) | 98 (LIIDQADIYL; listed as Homo sapiens) [compound 98]
″++″ (≥20% = ++) | 99 (ALVSKGLATV; listed as Homo sapiens) [compound 99]
″++++″ (≥75% = ++++) | 100 (YLLSTNAQL; listed as Homo sapiens) [compound 100]
″+++″ (≥50% = +++) | 101 (ILVGGGALATV; listed as Homo sapiens) [compound 101]
″+++″ (≥50% = +++) | 102 (YLFESEGLVL; listed as Homo sapiens) [compound 102]
″+++″ (≥50% = +++) | 103 (TLAEEVVAL; listed as Homo sapiens) [compound 103]
″++++″ (≥75% = ++++) | 104 (STMEQNFLL; listed as Homo sapiens) [compound 104]
″+++″ (≥50% = +++) | 106 (LLYDAVHIVSV; listed as Homo sapiens) [compound 106]
″+++″ (≥50% = +++) | 107 (FLQPVDDTQHL; listed as Homo sapiens) [compound 107]
″++++″ (≥75% = ++++) | 108 (ALFPGVALLLA; listed as Homo sapiens) [compound 108]
″++++″ (≥75% = ++++) | 109 (IILSILEQA; listed as Homo sapiens) [compound 109]
″+++″ (≥50% = +++) | 110 (FLSQVDFEL; listed as Homo sapiens) [compound 110]
″+++″ (≥50% = +++) | 111 (YVWGFYPAEV; listed as Homo sapiens) [compound 111]

Peptide exchange | Substance
″++″ (≥20% = ++) | 114 (SLVGEPILQNV; listed as Homo sapiens) [compound 114]
″++″ (≥20% = ++) | 115 (AIAGAGILYGV; listed as Homo sapiens) [compound 115]
″+″ (≥10% = +) | 116 (YHIDEEVGF; listed as Homo sapiens) [compound 116]
″+++″ (≥50% = +++) | 117 (ILPDGEDFLAV; listed as Homo sapiens) [compound 117]
″++++″ (≥75% = ++++) | 119 (FLYIGDIVSL; listed as Homo sapiens) [compound 119]
″+++″ (≥50% = +++) | 120 (ALLGIPLTLV; listed as Homo sapiens) [compound 120]
″++″ (≥20% = ++) | 121 (GVVDPRAISVL; listed as Homo sapiens) [compound 121]
″+++″ (≥50% = +++) | 122 (FLLAEDDIYL; listed as Homo sapiens) [compound 122]
″+++″ (≥50% = +++) | 123 (NLWDLTDASVV; listed as Homo sapiens) [compound 123]
″++″ (≥20% = ++) | 124 (ALYETELADA; listed as Homo sapiens) [compound 124]
″+++″ (≥50% = +++) | 125 (VQIHQVAQV; listed as Homo sapiens) [compound 125]
″++++″ (≥75% = ++++) | 126 (VLAYFLPEA; listed as Homo sapiens) [compound 126]
″++″ (≥20% = ++) | 127 (KIGDEPPKV; listed as Homo sapiens) [compound 127]
″++″ (≥20% = ++) | 128 (YLFDDPLSAV; listed as Homo sapiens) [compound 128]
″+++″ (≥50% = +++) | 129 (GLLDGGVDILL; listed as Homo sapiens) [compound 129]
″+++″ (≥50% = +++) | 130 (FLWNGEDSALL; listed as Homo sapiens) [compound 130]
″++″ (≥20% = ++) | 131 (FVPPVTVFPSL; listed as Homo sapiens) [compound 131]
″+++″ (≥50% = +++) | 132 (LLVEQPPLAGV; listed as Homo sapiens) [compound 132]
″++″ (≥20% = ++) | 133 (KVLSNIHTV; listed as Homo sapiens) [compound 133]
″+++″ (≥50% = +++) | 134 (YLQELIFSV; listed as Homo sapiens) [compound 134]
″+++″ (≥50% = +++) | 135 (ALSEVDFQL; listed as Homo sapiens) [compound 135]
″+++″ (≥50% = +++) | 136 (YLADPSNLFVV; listed as Homo sapiens) [compound 136]
″++++″ (≥75% = ++++) | 137 (TLVLTLPTV; listed as Homo sapiens) [compound 137]
″+++″ (≥50% = +++) | 138 (YQYPRAILSV; listed as Homo sapiens) [compound 138]

Peptide exchange | Substance
″+++″ (≥50% = +++) | 139 (SVMEVNSGIYRV; listed as Homo sapiens) [compound 139]
″++″ (≥20% = ++) | 140 (YMDAPKAAL; listed as Homo sapiens) [compound 140]
″+++″ (≥50% = +++) | 142 (FLFATPVFI; listed as Homo sapiens) [compound 142]
″+++″ (≥50% = +++) | 144 (YIMEPSIFNTL; listed as Homo sapiens) [compound 144]
″++″ (≥20% = ++) | 145 (FLATSGTLAGI; listed as Homo sapiens) [compound 145]
″++″ (≥20% = ++) | 146 (SLATAGDGLIEL; listed as Homo sapiens) [compound 146]
″+++″ (≥50% = +++) | 147 (SLLEAVSFL; listed as Homo sapiens) [compound 147]
″++″ (≥20% = ++) | 148 (ALNPEIVSV; listed as Homo sapiens) [compound 148]
″+++″ (≥50% = +++) | 149 (NLLELFVQL; listed as Homo sapiens) [compound 149]
″+++″ (≥50% = +++) | 151 (KILQQLVTL; listed as Homo sapiens) [compound 151]
″+++″ (≥50% = +++) | 152 (ILFEDIFDV; listed as Homo sapiens) [compound 152]
″+″ (≥10% = +) | 153 (FLIANVLYL; listed as Homo sapiens) [compound 153]
″++″ (≥20% = ++) | 154 (ALDDGTPAL; listed as Homo sapiens) [compound 154]
″+++″ (≥50% = +++) | 155 (RVANLHFPSV; listed as Homo sapiens) [compound 155]
″++″ (≥20% = ++) | 157 (SLNDEVPEV; listed as Homo sapiens) [compound 157]
″+++″ (≥50% = +++) | 158 (KLFDVDEDGYI; listed as Homo sapiens) [compound 158]
″++++″ (≥75% = ++++) | 159 (GLVGNPLPSV; listed as Homo sapiens) [compound 159]
″+++″ (≥50% = +++) | 160 (FLFDEEIEQI; listed as Homo sapiens) [compound 160]
″+++″ (≥50% = +++) | 161 (ALLEGVNTV; listed as Homo sapiens) [compound 161]
″+++″ (≥50% = +++) | 162 (YQQAQVPSV; listed as Homo sapiens) [compound 162]
″+++″ (≥50% = +++) | 163 (ALDEMGDLLQL; listed as Homo sapiens) [compound 163]
″+++″ (≥50% = +++) | 164 (ALLPQPKNLTV; listed as Homo sapiens) [compound 164]
″+++″ (≥50% = +++) | 165 (SLLDEIRAV; listed as Homo sapiens) [compound 165]
